Measured values as given in the supplement of paper PMC10567573.

B1: ZBED2 (parent)
chain: FHLAPARAGHHPNQYATCRLCGRQ
B2: STEAP1 (parent)
chain: WMLTRKQFGLLSFFFAVLHAIYSL

Variants of: B1
Assay: protein stability index of a GFP-peptide fusion (GPS, HEK-293T) (PSI 1-6); higher = more stable
Settings: c terminus: a fixed tail appended
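Further: lentivirally expressed fusions sorted by FACS into six bins by GFP to DsRed ratio, PSI derived from sequencing read proportions per bin multiplied by bin number.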

Protein stability index, by site and new letter:
R23: Y 1.83, I 1.93, S 1.52, N 2.07, F 2.1, K 1.37, W 2.46, M 1.81, Q 2.43
Q24: L 2.19, H 2, A 1.9, G 2.41, P 1.91, M 1.24, C 1.84, S 2.03, E 2.12, V 1.7, T 1.65, F 3.46, Y 1.53

Variants of: B2
Assay: as above
Settings: c terminus: a fixed tail appended

Protein stability index, by site and new letter:
F8: V 2.14, W 1.88, C 1.67, S 1.84, T 3.12, I 1.5, G 1.18, Q 2.11, E 1.64, N 1.73, D 2.31, R 2.31, M 1.94, L 2.04, A 1.74, Y 1.84, K 1.67, P 1.64, H 2.16
S12: K 1.86, M 1.67, D 1.28, E 2.95, V 1.67, C 1.88, I 1.61, L 1.66, T 1.84, P 3.09, A 2.05, W 2.76, G 1.75, Y 1.25, F 1.9, R 2.57, H 1.94, N 2.05, Q 2.38
V17: L 1.7, T 2.33, G 2.58, F 3.24, S 2.07, I 1.73, E 2.34, W 2.33, M 2.85, H 3.31, N 4.05, A 2.25, C 2.6, P 2.19, Q 3.15, Y 2.99, K 2.53, D 5.3
F15: H 1.73, R 1.7, P 1.78, A 1.82, M 1.62, Q 2.62, S 1.74, Y 1.71, V 1.51, W 1.55, D 2.78, N 1.4, G 1.58, I 1.94, E 2.7, C 1.77, T 1.32, K 1.58, L 2
L11: V 2.15, P 1.57, T 1.95, G 1.96, F 1.72, N 3.38, Q 1.67, S 1.62, K 1.34, A 2.01, R 1.51, D 2.23, E 2.43, I 2.31, C 1.48, M 2.52, W 1.72, Y 2.31
F13: P 1.95, M 2.13, R 2.44, Y 1.95, L 2.65, H 3.2, K 2.38, C 2.02, E 4.58, T 2.69, A 3.27, V 3.35, G 2.25, W 1.67, Q 1.78, I 2.11
G9: Y 2.75, I 1.83, T 1.25, A 2.27, V 1.83, R 2.97, F 1.94, N 1.46, W 2.24, K 2.04, H 2, S 1.98, Q 2.07, L 1.89, M 2.12, D 3.04, C 1.89, E 1.99
F14: G 2.11, Q 3.11, N 2.85, C 2.35, P 2.09, E 3.11, K 2.49, H 2, M 1.41, V 1.69, T 2.46, R 1.51, D 3.4, S 2.82, A 3.09, Y 1.47, I 2.96, W 1.82, L 1.73
W1: L 2.24, M 1.88, K 1.63, A 1.91, S 1.58, T 2.75, Y 2.37, N 2.35, F 1.71, R 2.01, Q 1.85, H 2.1, V 2.18, C 1.82, P 2.13, G 1.91, D 2.04, E 1.58, I 2.44
A16: G 1.77, C 1.69, M 1.13, F 1.93, V 1.51, K 1.46, S 1.45, R 1.93, Y 1.54, W 2.19, P 1.59, N 1.88, E 1.67, Q 1.52, T 2.63, D 2.07, L 1.64, H 1.76, I 1.77
Q7: E 1.21, Y 2.28, C 1.82, T 2.17, S 1.52, K 1.8, H 2.53, M 3.42, V 3.1, W 1.86, G 1.78, L 1.94, N 2.23, D 2.01, R 1.7, P 1.45, F 1.47, A 2.49, I 1.61
L3: I 2.59, A 1.73, N 2.1, H 2.09, D 2.93, Y 2.06, M 2.22, S 1.66, G 1.76, C 3.54, P 2.27, V 1.52, R 1.71, F 2.74, W 1.73, K 1.71, T 2.36, E 1.57, Q 2.05
T4: R 1.59, I 2.3, F 2.31, C 1.8, D 1.66, S 1.62, G 1.63, V 1.92, W 1.89, P 1.7, N 1.99, Q 2.35, A 1.28, H 1.6, Y 1.41, E 1.1, L 2.77, M 1.69, K 2.13
L18: C 2.75, A 2.43
K6: P 1.8, D 1.18, H 3.26, E 2.56, L 3.1, Q 2.48, V 3.54, N 2.32, Y 3.86, T 2.08, R 1.88, M 2.07, S 2.85, F 1.79, C 2.16
L10: R 4.36, A 1.76, T 1.96, N 1.99, S 1.53, D 2.52, Q 3.24, H 2.09, W 1.35, K 1.73, V 1.52, F 1.85, C 1.98, I 2.05, E 2.17, P 1.33, Y 1.66, G 2, M 1.83
R5: W 2.1, D 1.96, N 2.12, C 1.52, Q 2.21, Y 2.77, G 2.29, H 3.39, S 2.07, F 2.14, E 2.03, T 3.62, A 1.04, P 2.2, K 1.52, M 2.47
M2: W 1.75, Q 1.77, I 1.64, P 2.23, D 1.58, E 2.08, V 1.85, L 1.97, H 1.7, R 1.9, T 1.94, Y 1.99, F 1.73, C 1.49, A 1.74, S 1.52, N 2.18, K 1.78, G 1.46
